According to patent US20240132624A1 (Ablynx, published 2024):
Where a chain is given by its changes, count along the chain named.

B1: T0263018B11 W100cQ (VHH, name in Kabat numbering)
VHH: EVQLVESGGGVVQPGGSLRLSCAASGFTFSSYAMYWVRQAPGKGLEWVSAISSGGGSTDYADSVKGRFTISRDNSKNTLYLQMNSLRPEDTALYYCAADTLYTSLTQYSYWGQGTLVTVSS
notes: FLAG3-His6 tagged
B2: T0263018B11 W100cV (VHH, name in Kabat numbering)
VHH: B1 VHH with Q107V
notes: FLAG3-His6 tagged
B3: T0263018B11 W100cY (VHH, name in Kabat numbering)
VHH: B1 VHH with Q107Y
notes: FLAG3-His6 tagged
B4: T0263018B11 Y32F (VHH, name in Kabat numbering)
VHH: B1 VHH with Y32F, Q107W
notes: FLAG3-His6 tagged
B5: T0263018B11 Y32L (VHH, name in Kabat numbering)
VHH: B1 VHH with Y32L, Q107W
notes: FLAG3-His6 tagged
B6: T0263018B11 Y32Q (VHH, name in Kabat numbering)
VHH: B1 VHH with Y32Q, Q107W
notes: FLAG3-His6 tagged
B7: T0263018B11 Y32S (VHH, name in Kabat numbering)
VHH: B1 VHH with Y32S, Q107W
notes: FLAG3-His6 tagged
B8: T0263018B11 Y32T (VHH, name in Kabat numbering)
VHH: B1 VHH with Y32T, Q107W
notes: FLAG3-His6 tagged
B9: T0263018B11 Y32V (VHH, name in Kabat numbering)
VHH: B1 VHH with Y32V, Q107W
notes: FLAG3-His6 tagged
B10: T0263018B11 Y35F (VHH, name in Kabat numbering)
VHH: B1 VHH with Y35F, Q107W
notes: FLAG3-His6 tagged
B11: T0263018B11 Y98F (VHH, name in Kabat numbering)
VHH: B1 VHH with Y102F, Q107W
notes: FLAG3-His6 tagged
B12: T0263018B11 Y100dF (VHH, name in Kabat numbering)
VHH: B1 VHH with Q107W, Y108F
notes: FLAG3-His6 tagged
B13: T0263018B11 Y102T (VHH, name in Kabat numbering)
VHH: B1 VHH with Q107W, Y110T
notes: FLAG3-His6 tagged
B14: T026301050 (VHH, name in Kabat numbering)
VHH: B1 VHH with G26T, S53Q, S104D, Q107W
notes: tagless
B15: T026301051 (VHH, name in Kabat numbering)
VHH: B1 VHH with A33D, S104D, Q107W
notes: tagless
B16: T026301052 (VHH, name in Kabat numbering)
VHH: B1 VHH with G26T, S31E, A33D, Q107W
notes: tagless
B17: T026301054 (VHH, name in Kabat numbering)
VHH: B1 VHH with G26T, S31E, S53Q, S104D, Q107W
notes: tagless
B18: T026301059 (VHH, name in Kabat numbering)
VHH: B1 VHH with S31E, A33D, S53Q, S104D, Q107S
notes: tagless
B19: T026301060 (VHH, name in Kabat numbering)
VHH: B1 VHH with S31E, S104D, Q107S
notes: tagless
B20: T026301067 (VHH, name in Kabat numbering)
VHH: B1 VHH with G26T, A33D, S53Q, Q107K
notes: tagless
B21: T026301071 (VHH, name in Kabat numbering)
VHH: B1 VHH with G26T, S31E, S104D, Q107S
notes: tagless
B22: T026301072 (VHH, name in Kabat numbering)
VHH: B1 VHH with A33D, S53Q, S104D, Q107S
notes: tagless
B23: T026301074 (VHH, name in Kabat numbering)
VHH: B1 VHH with G26T, S31E, S104D, Q107W
notes: tagless

Columns and labels:
cyno FcRn/b2M [1] = molecular target: T1, cyno FcRn/b2M (cyno, UniProt Q8SPV9 24-297; Q8SPW0 21-119, biotinylated); experiment: SPR pH 6.0;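 note: surface plasmon resonance kinetics at 25 °C, diluted periplasmic extracts injected over immobilized ligand surfaces, 120 s association then 600–3600 s dissociation, running buffer containing 150 mM NaCl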
T1 construct: bought recombinant biotinylated protein (Immunitrack ITF05 or ACRO FCM-C82W5); also called cFcRn; cFcRn/cb2M
Protocol: (§1) All kinetic measurements have been performed on ProteOn XPR36 (BioRad Laboratories, Inc.), MASS-2 (Sierra sensors, Gmbh) or SPR-32 (Bruker Corporation). […] The phytip purified periplasmic extracts were diluted 1:10 in running buffer (CPA+150 mM NaCl+0.005% Tw20 at pH 5.5, pH 6.0 or pH 7.4) and injected over the ligand surfaces (association: 120 s at 45 μL/min; dissociation: 600s-3600 s at 45 μL/min). Experiments were carried out at 25° C.

human FcRn/b2M [2] = molecular target: T2, human FcRn/b2M (human, UniProt P61769 21-119, biotinylated); experiment: SPR pH 6.0
T2 construct: bought recombinant biotinylated protein (ACRO FCM-H82W4 or Immunitrack ITF01); also called hFcRn; hFcRn/hb2M
Protocol: as §1

cyno FcRn/b2M [3] = molecular target: T1, cyno FcRn/b2M; experiment: SPR off-rate; pH 7.4 vs pH 6.0;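 note: surface plasmon resonance with diluted periplasmic extracts flowed over ligand surfaces, 120 s association and 600–3600 s dissociation at 25 °C, running buffer containing 150 mM NaCl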
Protocol: as §1

human FcRn/b2M [4] = molecular target: T2, human FcRn/b2M; experiment: SPR off-rate; pH 7.4 vs pH 6.0;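 note: surface plasmon resonance with diluted periplasmic extracts flowed over ligand surfaces, 120 s association and 600–3600 s dissociation at 25 °C, running buffer containing 150 mM NaCl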
Protocol: as §1

cyno FcRn/b2M [5] = molecular target: T1, cyno FcRn/b2M; experiment: SPR pH 7.4;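 note: surface plasmon resonance kinetics, periplasmic extracts diluted 1:10 flowed over immobilized target at 25 °C, 120 s association then 600–3600 s dissociation, buffer with 150 mM NaCl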
Protocol: as §1

human FcRn/b2M [6] = molecular target: T2, human FcRn/b2M; experiment: SPR pH 7.4;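 note: surface plasmon resonance kinetics, periplasmic extracts diluted 1:10 flowed over immobilized target at 25 °C, 120 s association then 600–3600 s dissociation, buffer with 150 mM NaCl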
Protocol: as §1

human FcRn/b2M [7] = molecular target: T2, human FcRn/b2M; experiment: SPR pH 6.0; remark: listed apart in the source

T1 sequence (Q8SPV9 24-297 limits assumed, chain 1 of 2): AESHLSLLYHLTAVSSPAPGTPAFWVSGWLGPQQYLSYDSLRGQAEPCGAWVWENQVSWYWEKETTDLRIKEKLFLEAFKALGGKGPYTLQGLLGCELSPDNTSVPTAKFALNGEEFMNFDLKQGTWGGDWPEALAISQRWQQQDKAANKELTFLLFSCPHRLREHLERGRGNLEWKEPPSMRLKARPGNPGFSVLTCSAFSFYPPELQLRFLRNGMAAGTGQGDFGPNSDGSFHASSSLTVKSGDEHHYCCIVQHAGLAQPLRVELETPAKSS
T1 sequence (Q8SPW0 21-119 limits assumed, chain 2 of 2): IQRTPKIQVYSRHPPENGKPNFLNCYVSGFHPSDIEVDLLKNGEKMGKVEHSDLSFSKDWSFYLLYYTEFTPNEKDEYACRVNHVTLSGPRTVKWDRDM
T2 sequence (chain, as listed by the source limits assumed, chain 1 of 2): as the sequence (Q8SPV9 24-297 limits assumed, chain 1 of 2) above, with D39N, Q44E, S99G, G189S, N190S, M217L, T269S counted along it
T2 sequence (P61769 21-119 limits assumed, chain 2 of 2): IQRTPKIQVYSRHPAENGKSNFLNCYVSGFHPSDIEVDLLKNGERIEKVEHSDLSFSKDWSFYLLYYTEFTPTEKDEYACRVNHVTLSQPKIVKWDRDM

Row | Binder | koff (cyno FcRn/b2M [1]) | koff (human FcRn/b2M [2]) | kd ratio pH 7.4/6.0 (cyno FcRn/b2M [3]) | kd ratio pH 7.4/6.0 (human FcRn/b2M [4]) | koff (cyno FcRn/b2M [5]) | koff (human FcRn/b2M [6]) | koff (human FcRn/b2M [7])
1 | B1 | 0.0059 s⁻¹ | 0.009 s⁻¹ | 85 | 56 | 0.5 s⁻¹ | 0.5 s⁻¹ | –
2 | B2 | 0.0024 s⁻¹ | 0.0082 s⁻¹ | 76 | 61 | 0.18 s⁻¹ | 0.5 s⁻¹ | –
3 | B3 | 0.0015 s⁻¹ | 0.0021 s⁻¹ | 50 | 43 | 0.075 s⁻¹ | 0.09 s⁻¹ | –
4 | B4 | 0.00042 s⁻¹ | 0.00066 s⁻¹ | 46 | 39 | 0.019 s⁻¹ | 0.026 s⁻¹ | –
5 | B5 | 0.0084 s⁻¹ | 0.013 s⁻¹ | 46 | 49 | 0.39 s⁻¹ | 0.61 s⁻¹ | –
6 | B6 | 0.0013 s⁻¹ | 0.0023 s⁻¹ | 75 | 60 | 0.099 s⁻¹ | 0.14 s⁻¹ | –
7 | B7 | 0.0028 s⁻¹ | 0.0054 s⁻¹ | 52 | 35 | 0.14 s⁻¹ | 0.19 s⁻¹ | –
8 | B8 | 0.0035 s⁻¹ | 0.0045 s⁻¹ | 60 | 42 | 0.21 s⁻¹ | 0.19 s⁻¹ | –
9 | B9 | 0.0022 s⁻¹ | 0.004 s⁻¹ | 60 | 12 | 0.13 s⁻¹ | 0.048 s⁻¹ | –
10 | B10 | 0.0035 s⁻¹ | 0.0043 s⁻¹ | 46 | 33 | 0.16 s⁻¹ | 0.14 s⁻¹ | –
11 | B11 | 0.00026 s⁻¹ | 0.00053 s⁻¹ | 84 | 75 | 0.022 s⁻¹ | 0.04 s⁻¹ | –
12 | B12 | 0.0017 s⁻¹ | 0.0023 s⁻¹ | 34 | 26 | 0.057 s⁻¹ | 0.06 s⁻¹ | –
13 | B13 | 0.0012 s⁻¹ | 0.0017 s⁻¹ | 50 | 38 | 0.06 s⁻¹ | 0.065 s⁻¹ | –
14 | B14 | – | – | – | – | – | – | 0.029 s⁻¹
15 | B15 | – | – | – | – | – | – | 0.012 s⁻¹
16 | B16 | – | – | – | – | – | – | 0.0056 s⁻¹
17 | B17 | – | – | – | – | – | – | 0.041 s⁻¹
18 | B18 | – | – | – | – | – | – | 0.039 s⁻¹
19 | B19 | – | – | – | – | – | – | 0.034 s⁻¹
20 | B20 | – | – | – | – | – | – | 0.0061 s⁻¹
21 | B21 | – | – | – | – | – | – | 0.049 s⁻¹
22 | B22 | – | – | – | – | – | – | 0.015 s⁻¹
23 | B23 | – | – | – | – | – | – | 0.013 s⁻¹
